B1: TPR t1 (parent)
chain: GACCAAUCUGCCCUCAGAGCUCGAGAACAUCUUCGGAUGCAGAGGAGGCAGGCUUCGGUGGCGCGAUAGCGCCAACGUCCUCAACCUCCAAUGCAUCCCACCACAUGAUGAUGCCUGAAGAGCCUUGGUUUUUUG

Variants of: B1
Test: polymerase ribozyme fitness, log enrichment relative to wild type (log ratio); higher = more active; in vitro selection for triplet polymerase activity
Outline: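 A single round of triplicate in vitro selection, including frozen incubation at −7 °C, was applied to PCR-built, transcribed mutant libraries of each subunit of a heterodimeric triplet polymerase ribozyme. Illumina sequencing of input and output libraries retained genotypes with ≥10 input reads and ≥1 read per output. Fitness is the base-2 logarithm of genotype enrichment divided by wild-type enrichment, from inverse-variance-weighted replicate averages.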

Row | Variant | polymerase ribozyme fitness (log ratio)
1 | GACCAAUCUGCCCUCAGAGCUCGAGAACAUCUUCGGAUGCAGAGGAGGCAGGCUUCGGAGGUGCGAUAGCGCCAACGUCCUCAACCUCCAAUGCAUCCCACCACAUGAUGAUGCCUGAAGAGCCUUGGUUUUUUG [U59A C62U] | 0.252
2 | GACCAAUCUGCCCUCAGAGCUCGAGAACAUCUUCGGAUGCAGAGGAGGCAGGCUUCGGUGGCGCGAUACAGCCAACGUCCUCAACCUCCAAUGCAUCCCACCACAUGAUGAUGCCUAAAGGGCCUUGGUUUUUUG [G69C C70A G117A A121G] | -6.08
3 | GACCAAUAUGCCCCCAGAGCUCGAGAACAUCUUCGGAUUCAGAGGAGGCAGGCUUCGGUGGCGCGAUAGCGCCAACGUCCUCAACCUCCAAUGCAUCCCACGACAUGAUGAUGCCUAAAGAGCCUUGGUUUUUUG [C8A U14C G39U C102G G117A] | -6.22
4 | GACCAAUUUGCCCUCAGAGCUCGAGAACAUCUUCGGAUGCAGAGGAGGCAGCCUUCGGUGGCGCGAUAGCGCCAACGCCCUCAACCUCCAAUGCAUCCCACCACAUGAUCAUGCCUGAAGAGCCUUGGUUUUUUG [C8U G52C U78C G110C] | -5.87
5 | GACCAAUGUGCCCUCAGAGCUUGAGAACAUCUUCGGAUGGAGAGGAGGCAGGCUUCGGUGGCGCGAUAGCGCCAACGUCCUCAACCUCCAAUGCAUCCCACCACAUGAUGAUGCCUGAAAAGCAUUGGUUUUUUG [C8G C22U C40G G120A C124A] | -2.61
6 | GACCAAUCGGCCCUCAGAGCUCGAGAACAUCUUCGGAUGCAGAGGAGGCAGGCUUCGGUGUCGCGAUAGCGCCAACGUCCUCAACCUCCAAUGCAUCCCACCACAUGAUGAUGCCUGAAGAGCCUUGGUUUUUUG [U9G G61U] | 0.804
7 | GACCAAUCUGCCCUCAGUGCUCGAGAACAUCUUCGGAUGCAGACGAGGCAGGCUUCGGUGGCGCGAUAGCGCCAACGUCCUCAACCUCCAAAGCAUCCCACCACAUGAUGAUGCCUGAUGAGACUUGGUUUUUUG [A18U G44C U92A A119U C123A] | -5.44
8 | GACCAAUCUGCCCUCAGAGCUCGAGAACAUCUUCGGAUGCAGAGGAGGCAGGCUUCGGUGGCGCGAUAGCGCCAACGUCCUCAACCUCCAAUGCAUCCCACCACAUGAUGCUGCCUGAUGAGCCAUGGUUUUUUG [A111C A119U U125A] | -4.12
9 | GCCCAAUCUGCCCUCAGAGCUCGAGAACAUCUUCGGAUGCAGAGGAGGCAGGCUUAGGUGGCACGAUAGCGCCAACGUCCUCAACCUCCAAUGCAUCCCACCACAUGAUGAUGCCUGAAGAGCCUUGGUUUUUUG [A2C C56A G63A] | -4.79
10 | GACCAAUCUGCCCCCAGAGCUCGAGAACAUCUUCGGAUGCAGAGGAGGCAGGCUUCGGUGGCGCGAUAGGGCCAACGUCCUCAACCUCCAAUGCAUCCCACCACAUGAUGAUGCCUGAAGAGCCUUGGUUUUUUG [U14C C70G] | -4.01
11 | GACCAUUCUGCCCUCUGAGCUCGAGAACAUCUUCGGAUGCAGAGGAGGCAGGCUUCGGUGGCGCGAUAGCGCCAACGUCCUCAACCUCCAAUGCAUCCCACCACAUGAUGAUGCCUGAAGAGCCUUGGUUUUUUG [A6U A16U] | -1.42
12 | GACCAAUUUGCCCUCAGAGCUCGAGAACAUCUUCGGAUGCAGAGGAGGCAGGCUUCGGUGGCGCGAUAGCGCCAACGUCCUCUAUCUCCAAUGCAUCCCACCACAUGAUGAUGCCUGAAGAGGGUUGGUUUUUUG [C8U A83U C85U C123G C124G] | 2.01
13 | GACCAAUCUGCCCUCAGAGCUCGAGAACAUCUUCGGAUGCAGAGGAGGCAGGCUUCGGUGGCGCGAUAUCGCCAACGUCCUCAACCUCCAAUGCAUCCCACCACACGAUGAUGCCUGAAGUGCCUUGGUUUUUUG [G69U U106C A121U] | 2.34
14 | GACUAAUCUGCCCUCAGAGCUCGAGAACAUCUUCGGAUGCAGAGGAGGCAGGCUUCGGUGGCGCGAUAGCGUCAACGUCCUCAACCUCCAAUGCAUCCCACCACAUGAUGAUGCCUCAAGAGCCUUGGUUUUUUG [C4U C72U G117C] | -4.14
15 | GACCAAUCUGCCCUCAGAGCUCGAGAACAUCUUCGGAUGCAGAGGAGGUAGGCUUCGGUGGCGCGAUAGCGCCAACGUCCUCAACCUCCAAUGCAUCCCACCACAUGAUGAUGCCUGAAGAGCAUUGGUUUUUUG [C49U C124A] | 1.2
16 | GACCAAUCUGCCCUAAGAGCUCGAGAACAUCUUCGGAUGAAGAGGAGGCAGGCUUCGGUGGCGCGAUAGAGCCAACGUCCUCAACCUCCAAUGCAUUCCACCACAUGAUGAUGCCUGAAUAGCCUUGGUUUUUUG [C15A C40A C70A C97U G120U] | -5.14
17 | GACCAAUCUGCCCUCAGAGCUCGAGAACAUCUUUGGAUGCAGAGGAGGCAGGCUUCGGUAGCGCGAUAGCGCCAACGUCCUCAACCUCCAAUGCAUCCCACCACAUGAUGAUGCCUGAAGAGCCUUGGUUUUUUG [C34U G60A] | -5.21
18 | GACCAAUCUGCCCUCAGAGCUCGAGAACAUCUUCGGCUGCAGAGGAGGCAGGCUUCGGUGGCGCGAUAGCGUCAACGUCCUCAACCUCCAAUGCAUCCCACCACAUGAUGAUGCCUGAAGAGCCUUGGUUUUUUG [A37C C72U] | 0.162
19 | GACCAAUUUGCCCUCAGAGGUCGAGAACAUCUUCGGAUGCAGAGGAGGCAGGCUUCGGUGGCGCGAUAGCGCCAACGUCCUCAACCUCCAAUGCAUCCCACCACAUGAUGCUGCCUGAAGAGACUUGGUUUUUUG [C8U C20G A111C C123A] | -5.26
20 | GACCAAUCUGCCCUCAGAGCUCGAGAACAUCUUCGGAUGCAGAGGAGGCAGGCUUCGGUGUCGCGAUAGCGCCAACGUCCUCAACCUCCAAGGCAUCCCACCACAUGAUGAUGCCUGAAGAGCCUAGGGUUUUUG [G61U U92G U126A U129G] | -5.18
21 | GACCAAUCUGCCCUCAGAGCUCGAGAACAUCUUCGGAUGCAGAGGAGGCAGGUUUCGGUGGCGCGAUAGCGCUAACGUCCUCAACCUCCGAUGCAUCCCACCACAUGAUGAUGCCUGAAGAGCCUUGGUUUUUUG [C53U C73U A90G] | 0.151

Source: the RNAGym collection of RNA variant scans (doi:10.1073/pnas.2313332121)
